Data reported in patent JP2008512352A (dated 2008).
Several values for one entry are separate records, joined by “and”; a condition that tells them apart may be missing. Equal entries are not always repeated.

B1: IMC-11F8 (antibody, V domains shown)
VH: QVQLQESGPGLVKPSQTLSLTCTVSGGSISSGDYYWSWIRQPPGKGLEWIGYIYYSGSTDYNPSLKSRVTMSVDTSKNQFSLKVNSVTAADTAVYYCARVSIFGVGTFDYWGQGTLVTVSS
VL: EIVMTQSPATLSLSPGERATLSCRASQSVSSYLAWYQQKPGQAPRLLIYDASNRATGIPARFSGSGSGTDFTLTISSLEPEDFAVYYCHQYGSTPLTFGGGTKAEIK
B2: 抗-EGFR/抗-IGFR ジ-ダイアボディ (bispecific antibody)
chain 1: B1 VH
chain 2: B1 VL
chain 3: EVQLVQSGAEVKKPGSSVKVSCKASGGTFSSYAISWVRQAPGQGLEWMGGIIPIFGTANYAQKFQGRVTITADKSTSTAYMELSSLRSEDTAVYYCARAPLRFLEWSTQDHYYYYYMDVWGKGTTVTVSS
chain 4: SSELTQDPAVSVALGQTVRITCQGDSLRSYYASWYQQKPGQAPVLVIYGKNNRPSGIPDRFSGSSSGNTASLTITGAQAEDEADYYCNSRDNSDNRLIFGGGTKLTVL
B3: IMC-A12 (antibody, V domains shown)
VH: B2 chain 3
VL: B2 chain 4

Legend:
EGFR (腫瘍細胞上) = EGFR (腫瘍細胞上) (UniProt P00533 25-1210, limits assumed); assay: cell-based or functional assay
ヒトEGFR (プレート被覆) = biological target: T1, ヒトEGFR (プレート被覆) (human, UniProt P00533 25-645); assay: direct binding ELISA on immobilised EGFR (ED50: antibody concentration giving 50% of maximal binding)
T1 construct: extracellular domain; 'Extracellular domain' in the legend is read as applying to both EGFR and IGFR; also called 固定化EGFR

IGFR 細胞外ドメイン (プレート被覆) = biological target: T2, IGFR 細胞外ドメイン (プレート被覆) (human, UniProt P08069 31-935); assay: direct binding ELISA on immobilised IGFR (ED50: antibody concentration giving 50% of maximal binding)
T2 construct: extracellular domain; 'ヒト' in the legend is read as applying to both EGFR and IGFR; also called 固定化IGFR; IGF-IR

Binder	DiFi細胞の増殖阻害 IC50 (MTT) (EGFR (腫瘍細胞上)) [nM]	EC50 (ヒトEGFR (プレート被覆))	EC50 (IGFR 細胞外ドメイン (プレート被覆))
B1	~1		
B2	25	0.1 nM and 0.2 nM	0.25 nM and 0.5 nM
B3			0.1 nM
